Reference: the PETadex activity labels (doi:10.3389/fbioe.2022.865787)

Key:
PET [1] = experiment: Proxy for plastic degradation [Released monomer concentration (HPLC/LC-MS) (TPA)]; details: pH 8.5
PET [2] = experiment: Proxy for plastic degradation [Released monomer concentration (HPLC/LC-MS) (MHET)]; details: pH 8.5
PET [3] = experiment: Proxy for plastic degradation [Released monomer concentration (HPLC/LC-MS) (Total aromatic products)]; details: pH 8.5
p-NP-C10 = details: pH 8; 35 °C
p-NP-C12 = details: pH 8; 35 °C
p-NP-C14 = details: pH 8; 35 °C
p-NP-C16 = details: pH 8; 35 °C
p-NP-C18 = details: pH 8; 35 °C
p-NP-C2 = details: pH 8; 35 °C
p-NP-C4 = details: pH 8; 35 °C
p-NP-C6 = details: pH 8; 35 °C
p-NP-C8 = details: pH 8; 35 °C
pNPB = experiment: Proxy for plastic degradation [Absorbance @ 405nm]
PET [4] = experiment: Proxy for plastic degradation [Released monomer concentration (HPLC/LC-MS) (BHET)]; details: pH 8.5

B1: unnamed (protein)
chain: MNFPRASRLMQAAVLGGLMAVSAAATAQTNPYARGPNPTAASLEASAGPFTVRSFTVSRPSGYGAGTVYYPTNAGGTVGAIAIVPGYTARQSSIKWWGPRLASHGFVVITIDTNSTLDQPSSRSSQQMAALRQVASLNGTSSSPIYGKVDTARMGVMGWSMGGGGSLISAANNPSLKAAAPQAPWDSSTNFSSVTVPTLIFACENDSIAPVNSSALPIYDSMSRNAKQFLEINGGSHSCANSGNSNQALIGKKGVAWMKRFMDNDTRYSTFACENPNSTRVSDFRTANCS
With B1 the “Proxy for plastic degradation” value (PET [1]; 12 h, part of the chain shown) was 30 µM, the “Proxy for plastic degradation” value (PET [1]; 24 h, part of the chain shown) was 37.5 µM and the “Proxy for plastic degradation” value (PET [1]; 36 h, part of the chain shown) was 42.5 µM. The “Proxy for plastic degradation” value (PET [1]; 48 h, part of the chain shown) was 47.5 µM, the “Proxy for plastic degradation” value (PET [1]; 60 h, part of the chain shown) was 50 µM and the “Proxy for plastic degradation” value (PET [1]; 72 h, part of the chain shown) was 60 µM. The “Proxy for plastic degradation” value (PET [1]; 84 h, part of the chain shown) was 70 µM, the “Proxy for plastic degradation” value (PET [1]; 96 h, part of the chain shown) was 80 µM and the “Proxy for plastic degradation” value (PET [1]; 108 h, part of the chain shown) was 100 µM. The “Proxy for plastic degradation” value (PET [2]; 12 h, part of the chain shown) was 140 µM, the “Proxy for plastic degradation” value (PET [2]; 24 h, part of the chain shown) was 150 µM and the “Proxy for plastic degradation” value (PET [2]; 36 h, part of the chain shown) was 160 µM. The “Proxy for plastic degradation” value (PET [2]; 48 h, part of the chain shown) was 165 µM, the “Proxy for plastic degradation” value (PET [2]; 60 h, part of the chain shown) was 155 µM and the “Proxy for plastic degradation” value (PET [2]; 72 h, part of the chain shown) was 155 µM. The “Proxy for plastic degradation” value (PET [2]; 84 h, part of the chain shown) was 158 µM, the “Proxy for plastic degradation” value (PET [2]; 96 h, part of the chain shown) was 165 µM and the “Proxy for plastic degradation” value (PET [2]; 108 h, part of the chain shown) was 158 µM. For the same protein, the “Proxy for plastic degradation” value (PET [3]; 16 h, part of the chain shown) was 175 µM, the “Proxy for plastic degradation” value (PET [3]; 27.75 h, part of the chain shown) was 200 µM and the “Proxy for plastic degradation” value (PET [3]; 39.5 h, part of the chain shown) was 210 µM. The “Proxy for plastic degradation” value (PET [3]; 51.25 h, part of the chain shown) was 220 µM, the “Proxy for plastic degradation” value (PET [3]; 60 h, part of the chain shown) was 215 µM and the “Proxy for plastic degradation” value (PET [3]; 74.75 h, part of the chain shown) was 225 µM. The “Proxy for plastic degradation” value (PET [3]; 86.5 h, part of the chain shown) was 235 µM, the “Proxy for plastic degradation” value (PET [3]; 98.25 h, part of the chain shown) was 240 µM and the “Proxy for plastic degradation” value (PET [3]; 110 h, part of the chain shown) was 250 µM.

B2: unnamed (protein)
chain: MLTHSISPEETDGGRRTPLSRMSRLAARVGVTLSLAAGLTAGVTAPAHASNPYERGPAPTESSVTAVRGYFDTDTDTVSSLVSGFGGGTIYYPTDTSEGTFGGVVIAPGYTASQSSMAWMGHRIASQGFVVFTIDTITRYDQPDSRGRQIEAALDYLVEDSDVADRVDGNRLAVMGHSMGGGGTLAAAENRPELRAAIPLTPWHLQKNWSDVEVPTMIIGAENDTVASVRTHSIPFYESLDEDLERAYLELDGASHFAPNISNTVIAKYSISWLKRFVDEDERYEQFLCPPPDTGLFSDFSDYRDSCPHTT
With B2 the Km (p-NP-C10) was 4.93 mM, the kcat (p-NP-C10) was 69.9 s⁻¹ and the kcat/Km (p-NP-C10) was 14200 s⁻¹ M⁻¹. The Km (p-NP-C12) was 1.68 mM, the kcat (p-NP-C12) was 30.5 s⁻¹ and the kcat/Km (p-NP-C12) was 18200 s⁻¹ M⁻¹. For the same protein, the Km (p-NP-C14) was 190 µM, the kcat (p-NP-C14) was 9.87 s⁻¹ and the kcat/Km (p-NP-C14) was 51900 s⁻¹ M⁻¹. For the same protein, the Km (p-NP-C16) was 150 µM, the kcat (p-NP-C16) was 4.79 s⁻¹ and the kcat/Km (p-NP-C16) was 31900 s⁻¹ M⁻¹. The Km (p-NP-C18) was 450 µM, the kcat (p-NP-C18) was 14.3 s⁻¹ and the kcat/Km (p-NP-C18) was 31800 s⁻¹ M⁻¹. It also gave a Km (p-NP-C2) of 550 µM, a kcat (p-NP-C2) of 4.47 s⁻¹ and a kcat/Km (p-NP-C2) of 8130 s⁻¹ M⁻¹. For the same protein, the Km (p-NP-C4) was 1.33 mM, the kcat (p-NP-C4) was 14.1 s⁻¹ and the kcat/Km (p-NP-C4) was 10600 s⁻¹ M⁻¹. It also gave a Km (p-NP-C6) of 4.61 mM, a kcat (p-NP-C6) of 41.7 s⁻¹ and a kcat/Km (p-NP-C6) of 9050 s⁻¹ M⁻¹. The Km (p-NP-C8) was 2.55 mM, the kcat (p-NP-C8) was 79.4 s⁻¹ and the kcat/Km (p-NP-C8) was 31100 s⁻¹ M⁻¹. The “Proxy for plastic degradation” value (pNPB; pH 8) was 100%, the “Proxy for plastic degradation” value (pNPB; pH 8, 0 h) was 100% and the “Proxy for plastic degradation” value (pNPB; pH 8.5) was 97.5%. The “Proxy for plastic degradation” value (PET [1]; 12 h) was 5 µM, the “Proxy for plastic degradation” value (PET [1]; 24 h) was 12.5 µM and the “Proxy for plastic degradation” value (PET [1]; 36 h) was 25 µM. The “Proxy for plastic degradation” value (PET [1]; 48 h) was 50 µM, the “Proxy for plastic degradation” value (PET [1]; 60 h) was 70 µM and the “Proxy for plastic degradation” value (PET [1]; 72 h) was 75 µM. For the same protein, the “Proxy for plastic degradation” value (PET [1]; 84 h) was 120 µM, the “Proxy for plastic degradation” value (PET [1]; 96 h) was 150 µM and the “Proxy for plastic degradation” value (PET [1]; 108 h) was 180 µM. For the same protein, the “Proxy for plastic degradation” value (PET [4]) was 1 µM, the “Proxy for plastic degradation” value (PET [2]; 12 h) was 5 µM and the “Proxy for plastic degradation” value (PET [2]; 24 h) was 10 µM. For the same protein, the “Proxy for plastic degradation” value (PET [2]; 36 h) was 20 µM, the “Proxy for plastic degradation” value (PET [2]; 48 h) was 70 µM and the “Proxy for plastic degradation” value (PET [2]; 60 h) was 105 µM. The “Proxy for plastic degradation” value (PET [2]; 72 h) was 140 µM, the “Proxy for plastic degradation” value (PET [2]; 84 h) was 135 µM and the “Proxy for plastic degradation” value (PET [2]; 96 h) was 155 µM. The “Proxy for plastic degradation” value (PET [2]; 108 h) was 150 µM, the “Proxy for plastic degradation” value (PET [3]; 30 °C) was 45 µM and the “Proxy for plastic degradation” value (PET [3]; 35 °C) was 130 µM. For the same protein, the “Proxy for plastic degradation” value (PET [3]; 40 °C) was 230 µM, the “Proxy for plastic degradation” value (PET [3]; 45 °C) was 330 µM and the “Proxy for plastic degradation” value (PET [3]; 50 °C) was 100 µM.
